The supplement of paper PMC10126150
± gives the standard deviation of the averaged measurements.

Test system: ATP
Assay: switch fluorescence ratio, 500 uM ATP over buffer (Cy3 cluster intensity, sum of 5 cycles each) (fold (ratio)); higher = stronger signal-on switching upon ATP binding; sequences stand for … in TCGTCGGCAGCGTCAGATGTGTATAAGAGACAGTTTTTTTTTTTTTTTTTTTTTTTTT…TC
Settings: aptamer strand: ATP DNA aptamer (quencher-CACCTGGGGGAGTATTGCGGAGGAAGG + anchor), 100 nM annealed; ATP concentration: 500 uM
Procedure, shortened: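 The quencher-labelled ATP aptamer, at 100 nM, was annealed to Cy3-labelled switching-strand clusters on a modified Illumina MiSeq flow-cell. The clusters were imaged in selection buffer, then after 15 min with 500 uM ATP at 22 °C, and this buffer/ATP cycle ran five times with NaOH stripping and re-annealing between runs. Per-cluster fluorescence ratios, summed target-cycle over summed buffer-cycle Cy3 intensity, were averaged per switch-domain sequence. Clusters outside 100-1000 RFU were excluded.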
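Further: ATP exposure 15 min at 22 °C before imaging.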

## GGTCTGTGTG
  switch fluorescence ratio: 0.984 ± 0.028

## TTTTTAGCCC
  switch fluorescence ratio: 1.02 ± 0.053

## TTAGCGTGGG
  switch fluorescence ratio: 0.99 ± 0.023

## GAGCTCTTAT
  switch fluorescence ratio: 1 ± 0.038

## GATCCGGCGT
  switch fluorescence ratio: 1.03 ± 0.053

## GTGTACGGGG
  switch fluorescence ratio: 0.971 ± 0.026

## CGTTGTACTT
  switch fluorescence ratio: 1.01 ± 0.052

## TAGTTTTTAG
  switch fluorescence ratio: 0.981 ± 0.018

## ACCAGGGCAT
  switch fluorescence ratio: 1.067 ± 0.0076

## CGGGCTTTAA
  switch fluorescence ratio: 0.995 ± 0.026

## TTTTTATAGT
  switch fluorescence ratio: 1.02 ± 0.022

## TCTCTATAGG
  switch fluorescence ratio: 0.9834 ± 0.0036

## GGTGTGTGTT
  switch fluorescence ratio: 0.9951 ± 0.0078

## GGGGTGGGCT
  switch fluorescence ratio: 0.956 ± 0.031

## CTTAGATATT
  switch fluorescence ratio: 1.01 ± 0.045

## TCAGAATGCG
  switch fluorescence ratio: 0.991 ± 0.045

## ATGGTCGTCT
  switch fluorescence ratio: 0.971 ± 0.027

## AGGCTGAGCT
  switch fluorescence ratio: 0.979 ± 0.051

## TTTGTTGGGG
  switch fluorescence ratio: 1.02 ± 0.011

## AGTACAATGC
  switch fluorescence ratio: 1.47 ± 0.18

## AAGTTTGTTT
  switch fluorescence ratio: 0.99 ± 0.028

## TTGGGTTATG
  switch fluorescence ratio: 1 ± 0.013

## GGTTGTTCTG
  switch fluorescence ratio: 0.997 ± 0.015

## AGGACTTTAG
  switch fluorescence ratio: 0.943 ± 0.091

## CTTATAATTT
  switch fluorescence ratio: 0.9947 ± 0.0082

## ATTGTACGCT
  switch fluorescence ratio: 1.015 ± 0.0056

## TTACATGAAT
  switch fluorescence ratio: 1.04 ± 0.033

## TTACTGAAAA
  switch fluorescence ratio: 1.04 ± 0.025

## TATGTCATGT
  switch fluorescence ratio: 1.02 ± 0.011

## GAGGGCAGAC
  switch fluorescence ratio: 1.24 ± 0.075

## GTTACTGGTG
  switch fluorescence ratio: 1.05 ± 0.027

## ATTTATCTTT
  switch fluorescence ratio: 1 ± 0.032

## GATAGTTGGT
  switch fluorescence ratio: 1 ± 0.021

## CGTTGTCTAG
  switch fluorescence ratio: 0.9713 ± 0.005

## TGCGGTTGGG
  switch fluorescence ratio: 1.022 ± 0.003

## TTGCATTTTT
  switch fluorescence ratio: 1.01 ± 0.034

## AATCAGGGTA
  switch fluorescence ratio: 1.01 ± 0.04

## AGGTAGTTTA
  switch fluorescence ratio: 1.02 ± 0.045

## GAAATTAACT
  switch fluorescence ratio: 1.01 ± 0.033

## AACTTAGTAT
  switch fluorescence ratio: 1.018 ± 0.01

## AAGTTATTAC
  switch fluorescence ratio: 1 ± 0.032

## TCTTGCATGT
  switch fluorescence ratio: 1.02 ± 0.028

## TTACCCAGAG
  switch fluorescence ratio: 1.1 ± 0.064

## AAAAAGATTG
  switch fluorescence ratio: 1.06 ± 0.08

## AATAAATGAT
  switch fluorescence ratio: 1.01 ± 0.022

## AAGATCTTAT
  switch fluorescence ratio: 1.01 ± 0.031

## TTTCGGATCA
  switch fluorescence ratio: 0.9334 ± 0.0044

## TTGAAGATAA
  switch fluorescence ratio: 1.02 ± 0.033

## AGTCAGGCGA
  switch fluorescence ratio: 1.01 ± 0.078

## ATGTGCTCTC
  switch fluorescence ratio: 0.9817 ± 0.0082

## AAGTTATGAC
  switch fluorescence ratio: 1.03 ± 0.029

## GGACCATATC
  switch fluorescence ratio: 1.07 ± 0.017

## AGAATATGGG
  switch fluorescence ratio: 0.994 ± 0.011

## GGTGGGGGTA
  switch fluorescence ratio: 1.04 ± 0.042

## CCTGTTTCAG
  switch fluorescence ratio: 1.05 ± 0.018

## CAGAGGGAGG
  switch fluorescence ratio: 1.02 ± 0.033

## CCAGGTAACA
  switch fluorescence ratio: 1.03 ± 0.012

## AGATTTCGGC
  switch fluorescence ratio: 1.039 ± 0.0015

## TCTATTGAGC
  switch fluorescence ratio: 1.032 ± 0.0049

## CTTACGTTAT
  switch fluorescence ratio: 1.13 ± 0.036

## TTCGGAGTCT
  switch fluorescence ratio: 0.985 ± 0.094

## AAAAAACGTA
  switch fluorescence ratio: 1.08 ± 0.1

## TGGGTGGTGT
  switch fluorescence ratio: 1.016 ± 0.0034

## TCGGTGACGG
  switch fluorescence ratio: 1.01 ± 0.017

## TAAGAGCGTA
  switch fluorescence ratio: 1.0055 ± 0.00049

## TTATAGAAGA
  switch fluorescence ratio: 1.01 ± 0.0082

## CATAGAGGGT
  switch fluorescence ratio: 0.951 ± 0.03

## GGTAAGGGGG
  switch fluorescence ratio: 0.99 ± 0.031

## ATCAGATATG
  switch fluorescence ratio: 0.9974 ± 0.0033

## TTTGCGTTGT
  switch fluorescence ratio: 1.022 ± 0.0061

## TAATGACTTG
  switch fluorescence ratio: 0.953 ± 0.031

## TTTTGATACT
  switch fluorescence ratio: 1.0096 ± 0.00024

## TACTTACTAA
  switch fluorescence ratio: 1.19 ± 0.036

## TTTCGAGGCT
  switch fluorescence ratio: 0.976 ± 0.019

## GAGAGTTAAG
  switch fluorescence ratio: 0.9677 ± 0.0074

## ACCGTCTCAG
  switch fluorescence ratio: 1.05 ± 0.026

## AGAGCGGCAA
  switch fluorescence ratio: 2.81 ± 2.4

## GGGTGATATT
  switch fluorescence ratio: 0.996 ± 0.026

## CTATGGCCGG
  switch fluorescence ratio: 0.969 ± 0.024

## GGATTCGGTG
  switch fluorescence ratio: 0.976 ± 0.02

## TGATTGGGTA
  switch fluorescence ratio: 1 ± 0.019

## GTGGGGGGAA
  switch fluorescence ratio: 0.98 ± 0.018

## TCTGGGTTGG
  switch fluorescence ratio: 1.013 ± 0.0074

## TGCATGATCG
  switch fluorescence ratio: 1.02 ± 0.033

## GGGTGGGGGT
  switch fluorescence ratio: 1.03 ± 0.018

## TAGAGGTGTG
  switch fluorescence ratio: 0.99 ± 0.019

## GGGAGAATTT
  switch fluorescence ratio: 1.29 ± 0.43

## TAGGGGGAAT
  switch fluorescence ratio: 1.01 ± 0.054

## AGAGTAAGTG
  switch fluorescence ratio: 0.962 ± 0.025

## GAAGGCCTGT
  switch fluorescence ratio: 0.9745 ± 0.0097

## TAAGGGGAGT
  switch fluorescence ratio: 1.01 ± 0.038

## GTTTTTCTGT
  switch fluorescence ratio: 1.01 ± 0.014

## CGAGGGGGCC
  switch fluorescence ratio: 0.97 ± 0.052

## CGCGACGGGG
  switch fluorescence ratio: 1.03 ± 0.029

## GATCCCCCCC
  switch fluorescence ratio: 1.06 ± 0.03

## ATTGTACAGT
  switch fluorescence ratio: 1.02 ± 0.025

## TCTGTTCTTG
  switch fluorescence ratio: 0.987 ± 0.012

## ATGTATTCAG
  switch fluorescence ratio: 0.96694 ± 0.00025

## TTGATGGCTA
  switch fluorescence ratio: 0.983 ± 0.021

## GATTCGGTCT
  switch fluorescence ratio: 1.02 ± 0.058

## CCTGAAACCT
  switch fluorescence ratio: 1.51 ± 0.48

## AGGGAAATGA
  switch fluorescence ratio: 0.987 ± 0.024

## GACCGGTGGG
  switch fluorescence ratio: 0.9787 ± 0.0065

## ATTTACTCAT
  switch fluorescence ratio: 1.038 ± 0.0012

## ACGGGTGGCG
  switch fluorescence ratio: 0.95 ± 0.11

## TTTTCAAATA
  switch fluorescence ratio: 1.01 ± 0.061

## TCCTAAGGGG
  switch fluorescence ratio: 1.79 ± 1

## TAAGTGACAG
  switch fluorescence ratio: 1.01 ± 0.063

## GGGTGGAGTT
  switch fluorescence ratio: 0.9672 ± 0.0046

## CTTTGGGGTT
  switch fluorescence ratio: 1.01 ± 0.032

## CGGTTTTTTT
  switch fluorescence ratio: 0.978 ± 0.016

## TGTAACTTCG
  switch fluorescence ratio: 1.001 ± 0.0082

## CGTTTGTGGG
  switch fluorescence ratio: 0.984 ± 0.034

## TTCGGGGTTG
  switch fluorescence ratio: 0.96 ± 0.015

## ACGAATGTTG
  switch fluorescence ratio: 0.9918 ± 0.0029

## TGCTGCTACC
  switch fluorescence ratio: 1.07 ± 0.037

## GGTATAATTT
  switch fluorescence ratio: 1.04 ± 0.044

## GAATTAGAAA
  switch fluorescence ratio: 0.999 ± 0.014

## GGATCGTGGG
  switch fluorescence ratio: 0.995 ± 0.03

## ATTTCGAGTT
  switch fluorescence ratio: 0.972 ± 0.014

## TTAGGCCGGC
  switch fluorescence ratio: 0.988 ± 0.11

## AATTTGATGT
  switch fluorescence ratio: 1.005 ± 0.0056

## CGCGTACGTT
  switch fluorescence ratio: 1.05 ± 0.018

## GGTTTGAGAG
  switch fluorescence ratio: 0.989 ± 0.048

## TAGGGGAGC
  switch fluorescence ratio: 1.01 ± 0.045

## TTTGGTTTTA
  switch fluorescence ratio: 1.004 ± 0.0077

## TAGGGGGGAA
  switch fluorescence ratio: 1 ± 0.023

## AGGCCATTGG
  switch fluorescence ratio: 1.04 ± 0.024

## TGATTTTTTA
  switch fluorescence ratio: 0.992 ± 0.025

## AGGCGGTATC
  switch fluorescence ratio: 1.047 ± 0.0025

## GTTGGGTGAG
  switch fluorescence ratio: 0.987 ± 0.02

## TGAAGCTGAT
  switch fluorescence ratio: 1.02 ± 0.059

## GTCGTGTGGT
  switch fluorescence ratio: 0.99 ± 0.045

## GCCTGGGGGC
  switch fluorescence ratio: 0.967 ± 0.019

## CAGAATTAA
  switch fluorescence ratio: 1 ± 0.037

## GACCTGGGGC
  switch fluorescence ratio: 0.973 ± 0.068

## CCTATGGTTC
  switch fluorescence ratio: 1.07 ± 0.053

## ATGGGCAGCT
  switch fluorescence ratio: 1.02 ± 0.011

## ACATGGGGGG
  switch fluorescence ratio: 0.993 ± 0.038

## TCCAGGTTAG
  switch fluorescence ratio: 1.17 ± 0.03

## AAGGGTTCAT
  switch fluorescence ratio: 1.031 ± 0.0099

## TTGTTGCTTA
  switch fluorescence ratio: 1.05 ± 0.006

## GATTTTTTTG
  switch fluorescence ratio: 0.985 ± 0.037

## CTAACATTTT
  switch fluorescence ratio: 1.01 ± 0.018

## GGACGGTATT
  switch fluorescence ratio: 1.08 ± 0.051

## TTGTTTGATA
  switch fluorescence ratio: 0.9883 ± 0.0073

## AGTTATTTGG
  switch fluorescence ratio: 1 ± 0.0047

## TAATAGTGTT
  switch fluorescence ratio: 1.024 ± 0.0092

## TCCTCAGGTG
  switch fluorescence ratio: 4.07 ± 0.33

## AGGGTATTCA
  switch fluorescence ratio: 1.01 ± 0.02

## TGCTTTTTCA
  switch fluorescence ratio: 0.9895 ± 0.0042

## CATAGAGTGT
  switch fluorescence ratio: 1 ± 0.021

## ACAGCGTGGG
  switch fluorescence ratio: 1.041 ± 0.0097

## TTGGGGGATC
  switch fluorescence ratio: 0.982 ± 0.015

## GAACGGAGGC
  switch fluorescence ratio: 0.978 ± 0.016

## AAATAGCTTT
  switch fluorescence ratio: 0.9909 ± 0.0026

## TGGTATGCGC
  switch fluorescence ratio: 0.9971 ± 0.0047
